The text below walks through data of US20170129954A1 (PROTHENA BIOSCIENCES, published 2017).

One experiment has as its target T1, recombinant laminin 511 (UniProt O15230 36-3695; P07942 22-1786; P11047 34-1609).
T1 construct: also called laminin 10 (α5β1γ1)
Briefly: flow cytometry with pan-laminin antibody on CHO cells transfected with human MCAM.

Another experiment concerns the target laminin α-4 (UniProt Q16363 25-1823). Description: FACS on mammalian cells displaying the mutant. The source says:
Twenty point mutants based on the structure information and shotgun mutagenesis information were designed and generated.

Where a chain is given by its changes, count along the chain named. In names and notes the source's numbering stands.

laminin α-4, sequence (Q16363 25-1823): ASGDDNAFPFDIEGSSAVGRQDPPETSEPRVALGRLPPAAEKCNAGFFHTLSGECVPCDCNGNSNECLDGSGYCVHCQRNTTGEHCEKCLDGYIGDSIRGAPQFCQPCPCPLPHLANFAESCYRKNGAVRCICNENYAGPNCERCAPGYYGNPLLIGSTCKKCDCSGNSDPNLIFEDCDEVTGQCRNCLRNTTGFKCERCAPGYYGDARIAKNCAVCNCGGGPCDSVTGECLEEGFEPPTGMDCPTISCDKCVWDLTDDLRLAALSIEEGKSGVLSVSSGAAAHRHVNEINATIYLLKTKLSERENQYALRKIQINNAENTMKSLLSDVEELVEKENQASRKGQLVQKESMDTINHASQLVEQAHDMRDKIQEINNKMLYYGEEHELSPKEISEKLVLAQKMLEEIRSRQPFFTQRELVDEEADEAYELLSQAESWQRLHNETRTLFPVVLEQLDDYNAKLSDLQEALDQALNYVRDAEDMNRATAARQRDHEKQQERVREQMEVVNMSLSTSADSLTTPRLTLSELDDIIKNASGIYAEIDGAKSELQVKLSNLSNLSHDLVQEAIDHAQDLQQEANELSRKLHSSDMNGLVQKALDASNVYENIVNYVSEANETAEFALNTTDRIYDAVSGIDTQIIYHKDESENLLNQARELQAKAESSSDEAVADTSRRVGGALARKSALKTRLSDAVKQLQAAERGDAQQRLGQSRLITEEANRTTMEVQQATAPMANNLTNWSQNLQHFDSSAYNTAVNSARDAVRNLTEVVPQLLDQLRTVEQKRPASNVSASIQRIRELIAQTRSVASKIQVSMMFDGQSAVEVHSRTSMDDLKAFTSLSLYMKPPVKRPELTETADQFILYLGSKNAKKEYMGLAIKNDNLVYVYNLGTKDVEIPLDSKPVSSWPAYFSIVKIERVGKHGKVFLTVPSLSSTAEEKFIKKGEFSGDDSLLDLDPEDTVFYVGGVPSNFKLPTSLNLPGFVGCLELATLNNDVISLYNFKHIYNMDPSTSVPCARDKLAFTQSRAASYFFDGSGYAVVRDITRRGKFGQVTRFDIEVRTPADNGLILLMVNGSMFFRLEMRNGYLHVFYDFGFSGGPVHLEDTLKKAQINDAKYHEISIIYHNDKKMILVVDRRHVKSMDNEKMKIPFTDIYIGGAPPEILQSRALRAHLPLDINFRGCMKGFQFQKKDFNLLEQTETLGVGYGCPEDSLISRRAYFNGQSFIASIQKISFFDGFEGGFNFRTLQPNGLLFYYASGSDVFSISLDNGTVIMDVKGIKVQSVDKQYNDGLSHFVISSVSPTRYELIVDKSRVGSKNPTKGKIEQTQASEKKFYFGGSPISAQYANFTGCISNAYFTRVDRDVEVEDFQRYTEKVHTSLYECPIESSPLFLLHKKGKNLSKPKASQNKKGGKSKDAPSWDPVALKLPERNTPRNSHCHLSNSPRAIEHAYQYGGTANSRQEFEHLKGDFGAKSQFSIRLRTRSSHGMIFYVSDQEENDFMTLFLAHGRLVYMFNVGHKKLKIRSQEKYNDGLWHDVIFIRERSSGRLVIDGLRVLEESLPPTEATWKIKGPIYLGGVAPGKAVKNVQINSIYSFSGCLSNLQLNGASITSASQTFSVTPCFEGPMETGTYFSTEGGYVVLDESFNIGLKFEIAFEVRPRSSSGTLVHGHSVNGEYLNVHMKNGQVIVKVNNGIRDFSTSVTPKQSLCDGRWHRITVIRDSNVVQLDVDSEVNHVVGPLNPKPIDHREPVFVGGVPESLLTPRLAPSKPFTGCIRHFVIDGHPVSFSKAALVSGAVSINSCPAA

B1: human MCAM, full length, expressed on transfected cells (receptor)
chain: VPGEAEQPAPELVEVEVGSTALLKCGLSQSQGNLSHVDWFSVHKEKRTLIFRVRQGQGQSEPGEYEQRLSLQDRGATLALTQVTPQDERIFLCQGKRPRSQEYRIQLRVYKAPEEPNIQVNPLGIPVNSKEPEEVATCVGRNGYPIPQVIWYKNGRPLKEEKNRVHIQSSQTVESSGLYTLQSILKAQLVKEDKDAQFYCELNYRLPSGNHMKESREVTVPVFYPTEKVWLEVEPVGMLKEGDRVEIRCLADGNPPPHFSISKQNPSTREAEEETTNDNGVLVLEPARKEHSGRYECQAWNLDTMISLLSEPQELLVNYVSDVRVSPAAPERQEGSSLTLTCEAESSQDLEFQWLREETDQVLERGPVLQLHDLKREAGGGYRCVASVPSIPGLNRTQLVKLAIFGPPWMAFKERKVWVKENMVLNLSCEASGHPRPTISWNVNGTASEQDQDPQRVLSTLNVLVTPELLETGVECTASNDLGKNTSILFLELVNLTTLTPDSNTTTGLSTSTASPHTRANSTSTERKLPEPESRGVVIVAVIVCILVLAVLGAVLYFLYKKGKLPCRRSGKQEITLPPSRKTELVVEVKSDKLPEEMGLLQGSSGDKRAPGDQGEKYIDLRH
notes: also called CD146; MUC18
As for B1, the binding result with recombinant laminin 511 is “no binding (tested: 10 µg/ml)”.

B2: human MCAM D216A single mutant displayed on mammalian cells (receptor)
chain: B1 chain with D193A
With B2, the binding result with laminin α-4 is listed as “no binding”.

B3: human MCAM Y318A single mutant displayed on mammalian cells (receptor)
chain: B1 chain with Y295A
notes: also called Y318A mutant
Take B3: in the experiment with laminin α-4, the binding result is reported as “no binding”.
